The target in experiment [1] is HLA-B*08:01. Description: IEDB peptide-MHC binding, purified MHC/competitive/fluorescence; ≥ and ≤ were set here for values at or beyond the usual limits of such assays.
In experiment [2] the target is HLA-A*24:02. The description is as above.
For experiment [3], the target named is HLA-B*44:02. Description: IEDB peptide-MHC binding, purified MHC/direct/fluorescence; filed as Kd, often an IC50 or EC50 that approximates it; ≥ and ≤ were set here for values at or beyond the usual limits of such assays. The following applies: source organism: Mammarenavirus juninense.
Experiment [4] concerns the target HLA-B*48:01. The description is as above. The following applies: source organism: Mammarenavirus juninense.
Experiment [5] deals with HLA-B*57:01. The experiment is described as above. The following applies: source organism: Mammarenavirus juninense.
The target in experiment [6] is HLA-B*46:01. The description is as above. The following applies: source organism: Mammarenavirus juninense.
Experiment [7] has as its target HLA-C*07:02. The description is as above.
Experiment [8] concerns the target HLA-A*01:01. Described as above.
For experiment [9], the target named is HLA-A*02:01. The description is as above. The following applies: source organism: Mammarenavirus juninense.
The target of experiment [10] is HLA-B*58:01. The description is as above. The following applies: source organism: Mammarenavirus juninense.
The target of experiment [11] is HLA-B*15:01. The experiment is described as above. Conditions: source organism: Mammarenavirus juninense.
The target of experiment [12] is HLA-A*31:01. Described as above.
Experiment [13] concerns the target HLA-A*29:02. The experiment is described as above.
For experiment [14], the target named is HLA-A*69:01. The experiment is described as above. Conditions: source organism: Mammarenavirus juninense.
The target of experiment [15] is HLA-A*03:01. The experiment is described as above.
In experiment [16] the target is HLA-B*18:01. Described as above. The following applies: source organism: Mammarenavirus juninense.
In experiment [17] the target is HLA-B*39:01. Description: IEDB peptide-MHC binding, purified MHC/competitive/fluorescence; filed as Kd, often an IC50 or EC50 that approximates it; ≥ and ≤ were set here for values at or beyond the usual limits of such assays.
In experiment [18] the target is HLA-A*11:01. As to the kind of experiment: IEDB peptide-MHC binding, purified MHC/competitive/fluorescence; ≥ and ≤ were set here for values at or beyond the usual limits of such assays.
Experiment [19] addresses HLA-A*01:01. The experiment is described as above.
In experiment [20] the target is HLA-A*02:01. The description is as above.
In experiment [21] the target is HLA-B*15:01. The experiment is described as above.
In experiment [22] the target is HLA-A*03:01. The description is as above.
Experiment [23] addresses HLA-A*01:01. Description: IEDB peptide-MHC binding, purified MHC/competitive/fluorescence; filed as Kd, often an IC50 or EC50 that approximates it; ≥ and ≤ were set here for values at or beyond the usual limits of such assays.
The target in experiment [24] is HLA-A*11:01. As to the kind of experiment: IEDB peptide-MHC binding, purified MHC/direct/fluorescence; filed as Kd, often an IC50 or EC50 that approximates it; ≥ and ≤ were set here for values at or beyond the usual limits of such assays. The following applies: source organism: Camelpox virus CMS.
The target in experiment [25] is HLA-A*30:01. The description is as above. The following applies: source organism: Camelpox virus CMS.
The target of experiment [26] is HLA-B*07:02. Description: IEDB peptide-MHC binding, purified MHC/competitive/fluorescence; ≥ and ≤ were set here for values at or beyond the usual limits of such assays. Conditions: source organism: Vaccinia virus.
For experiment [27], the target named is HLA-A*02:03. Description: IEDB peptide-MHC binding, purified MHC/competitive/fluorescence; filed as Kd, often an IC50 or EC50 that approximates it; ≥ and ≤ were set here for values at or beyond the usual limits of such assays. Conditions: source organism: Human immunodeficiency virus 1.
For experiment [28], the target named is HLA-B*57:01. Described as above.
In experiment [29] the target is HLA-B*15:17. Described as above.
For experiment [30], the target named is HLA-A*30:01. Described as above. The following applies: source organism: Human immunodeficiency virus 1.
Experiment [31] has as its target HLA-B*15:01. Described as above. Conditions: source organism: Human immunodeficiency virus 1.
Experiment [32] has as its target HLA-B*18:01. The description is as above.
Experiment [33] concerns the target HLA-A*02:12. As to the kind of experiment: IEDB peptide-MHC binding, purified MHC/direct/fluorescence; filed as Kd, often an IC50 or EC50 that approximates it; ≥ and ≤ were set here for values at or beyond the usual limits of such assays. Conditions: source organism: Zaire ebolavirus.
The target of experiment [34] is HLA-A*02:19. Described as above. Conditions: source organism: Zaire ebolavirus.
Experiment [35] has as its target HLA-A*02:11. The description is as above. Conditions: source organism: Zaire ebolavirus.
For experiment [36], the target named is HLA-A*68:02. The experiment is described as above. Conditions: source organism: Zaire ebolavirus.
Experiment [37] has as its target HLA-B*46:01. As to the kind of experiment: IEDB peptide-MHC binding, purified MHC/competitive/fluorescence; filed as Kd, often an IC50 or EC50 that approximates it; ≥ and ≤ were set here for values at or beyond the usual limits of such assays. The following applies: source organism: Zaire ebolavirus.
Experiment [38] concerns the target HLA-A*02:01. Described as above. Conditions: source organism: Zaire ebolavirus.
The target in experiment [39] is HLA-B*27:03. The experiment is described as above. Conditions: source organism: Zaire ebolavirus.
Experiment [40] addresses HLA-A*69:01. Described as above. The following applies: source organism: Zaire ebolavirus.
Experiment [41] has as its target HLA-A*26:01. The experiment is described as above. Conditions: source organism: Zaire ebolavirus.
Experiment [42] addresses HLA-B*51:01. The experiment is described as above. Conditions: source organism: Zaire ebolavirus.
Experiment [43] has as its target HLA-A*29:02. The description is as above. The following applies: source organism: Measles morbillivirus.
[44] abbreviates: source organism: Mammarenavirus juninense.
[45] abbreviates: source organism: Zaire ebolavirus.
Where [46] appears, read: source organism: Camelpox virus CMS.
[47] abbreviates: source organism: Vaccinia virus.
Where [48] appears, read: source organism: Human immunodeficiency virus 1.
The mark [49] stands for this setting: source organism: Vaccinia virus Copenhagen.
Setting [50] is: source organism: Sudan ebolavirus.

We go through 14 sequences from the Immune Epitope Database (IEDB).

One may read the IC50 as the concentration needed to halve the response being measured. Lower therefore signals greater potency. As to DFHERPVIL, the IC50 in experiment [1] (source organism: Variola virus) is not below 88.5 µM; in [2] (source organism: Variola virus) it was 0.0313 µM.
For orientation: Kd means the concentration at which binding is half-saturated. A lower Kd goes with tighter binding. As for FRRVAHSSL, the Kd in experiment [3] is not below 20 µM; in experiment [4], not below 20 µM; in [5], not below 20 µM; in experiment [6] it was not below 20 µM; in [7] (setting [44]) it was 0.053 µM; in experiment [8] (setting [44]) it was not below 20 µM. In addition, the Kd in [9], in experiment [10], in experiment [11], in experiment [12] (setting [44]), in experiment [13] (setting [44]) and in experiment [14] was not below 20 µM in each case. Besides, the Kd was not below 20 µM in [15] (setting [44]), not below 20 µM in experiment [16] and 0.377 µM in experiment [17] (setting [44]).
On to GSYGEYQSY, for which the IC50 in experiment [18] (setting [45]) is 1.29 µM; in experiment [19] (setting [45]) it was 9.91 µM; in experiment [20] (setting [45]), not below 154 µM; in experiment [21] (setting [45]), 3.51 µM; in experiment [22] (setting [45]), 26.1 µM.
For GTNETEYLF, the IC50 in [19] (setting [45]) was not below 373 µM; in [20] (setting [45]), 20.9 µM; in experiment [2] (setting [45]), 8.71 µM.
As to HSDTAKAFA, the Kd in experiment [23] (source organism: Escherichia coli) was not below 20 µM.
Take HYRPYHYYH: the Kd in experiment [24] is not below 20 µM; in experiment [7] (setting [46]), 0.013 µM; in experiment [25] it was 0.023 µM; in [12] (setting [46]), 0.0032 µM; in [15] (setting [46]), not below 20 µM.
Turning to INPIVKTSL, the IC50 in experiment [26] was 21.1 µM; in [1] (setting [47]), not below 88.4 µM.
As to KSLYNTVATLY, the Kd in [27] is not below 20 µM; in experiment [28] (setting [48]), 0.959 µM; in experiment [29] (setting [48]), 0.0064 µM; in experiment [23] (setting [48]) it was not below 20 µM; in experiment [30], not below 20 µM; in experiment [31], not below 20 µM. In experiment [32] (setting [48]), this sequence had a Kd not below 20 µM.
With NSTHNTPVY, the Kd is not below 20 µM in [33]; not below 20 µM in [8] (source organism: Ebola virus - Eckron (Zaire, 1976)); not below 20 µM in experiment [13] (setting [45]); not below 20 µM in [15] (setting [45]); not below 20 µM in experiment [34]; not below 20 µM in experiment [35]. The Kd in [36], in experiment [28] (setting [45]), in experiment [29] (setting [45]), in experiment [37], in [17] (setting [45]) and in experiment [38] was not below 20 µM in each case. Moreover, the Kd in experiment [39], in experiment [40], in experiment [41], in [42] and in experiment [32] (setting [45]) was not below 20 µM each time. Besides, the values for the IC50 in [19] (setting [45]) and in experiment [21] (setting [45]) were 29.1 µM and not below 119 µM, respectively.
On to SFSYFYPFR, for which the Kd in experiment [23] (source organism: Measles morbillivirus) was not below 20 µM; in experiment [43], 0.458 µM.
In the case of TFALKKLII, the IC50 in experiment [1] (setting [49]) is not below 132 µM; in experiment [20] (setting [49]) it was not below 131 µM; in experiment [2] (setting [49]), 0.323 µM.
For the sequence VRQRVIPVY, the IC50 in experiment [1] (setting [45]) was not below 210 µM; in [20] (setting [45]), not below 524 µM; in [21] (setting [45]), 3.26 µM; in experiment [2] (setting [45]), 23.4 µM.
For the sequence VSYEAGEWA, the IC50 in [19] (setting [50]) came to 50.3 µM; in [20] (setting [50]), 15 µM.
WAMEKSSKY: the IC50 in [26] is not below 624 µM; in experiment [18] (setting [47]) it was not below 130 µM; in experiment [19] (setting [47]), 36.8 µM; in [20] (setting [47]), not below 122 µM; in experiment [21] (setting [47]), 9.18 µM; in experiment [22] (setting [47]) it was not below 265 µM.
